This passage reports Kd results from paper PMC9396414 (2022).

The target in the assay is RbPLX7. Nature of the assay: SPR. In general terms: SPR reads the build-up and loss of mass on a sensor chip optically.

B1: biotinylated human Plexin-B1 (20–535)-Avi-6xHis (domain or fragment)
chain: LQPLPPTAFTPNGTYLQHLARDPTSGTLYLGATNFLFQLSPGLQLEATVSTGPVLDSRDCLPPVMPDECPQAQPTNNPNQLLLVSPGALVVCGSVHQGVCEQRRLGQLEQLLLRPERPGDTQYVAANDPAVSTVGLVAQGLAGEPLLFVGRGYTSRGVGGGIPPITTRALWPPDPQAAFSYEETAKLAVGRLSEYSHHFVSAFARGASAYFLFLRRDLQAQSRAFRAYVSRVCLRDQHYYSYVELPLACEGGRYGLIQAAAVATSREVAHGEVLFAAFSSAAPPTVGRPPSAAAGASGASALCAFPLDEVDRLANRTRDACYTREGRAEDGTEVAYIEYDVNSDCAQLPVDTLDAYPCGSDHTPSPMASRVPLEATPILEWPGIQLTAVAVTMEDGHTIAFLGDSQGQLHRVYLGPGSDGHPYSTQSIQQGSAVSRDLTFDGTFEHLYVMTQSTLLKVPVASCAQHLDCASCLAHRDPYCGWCVLLGRCSRRSECSRGQGPEQWLWSFQPELGCLQ
modifications: biotin on the Avi-tag (in vitro, BirA enzyme)
By Kd is commonly meant a measure of binding affinity in units of concentration. A lower Kd goes with higher affinity. Turning to B1, the affinity, expressed as Kd, was 0.346 nM.
